In US20230174616A1 (UNIVERSITY OF SOUTHERN CALIFORNIA, published 2023):
*1 amine or outer side, *2 acyl side, *3 side chain or, on linkers, in order; H or OH if unused. Where no end group is shown, it is not given here. [ ]: non-standard residue; d: D form. Met(35S) = [35S]-methionine label, C[35S]CC[C@H](N[*:1])C(=O)[*:2]; 35S = [35S]-methionine radiolabel; Pra = C#CC[C@H](N)C(=O)O

T1: hPD-L2* (recombinant glycosylated human PD-L2 ectodomain, L20-T220, expressed in Expi293F cells) (human, UniProt Q9BQ51 20-220, glycosylated; Avi tag biotinylated in vitro with BirA)
T1 construct: range 20-220
T1 sequence: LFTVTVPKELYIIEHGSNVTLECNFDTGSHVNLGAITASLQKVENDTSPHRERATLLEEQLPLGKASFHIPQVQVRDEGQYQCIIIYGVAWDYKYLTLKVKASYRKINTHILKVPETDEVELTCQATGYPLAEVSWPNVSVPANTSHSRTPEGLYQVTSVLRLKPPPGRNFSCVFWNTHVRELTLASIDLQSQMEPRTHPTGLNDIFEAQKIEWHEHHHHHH

B1: [35S]-labeled SPAM peptide (in vitro translated) (peptide)
peptide: M(35S)PIFLDHILNKFWILHYAGSGSSGHHHHHHSS
notes: Translated in reticulocyte lysate; also called [35S]-SPAM; radiolabeled SPAM peptide
B2: mPD-1 (extracellular domain of mouse PD-1, L15 to S157, C83S, HA tag and His tag, expressed in E. coli) (receptor)
chain: MALEVPNGPWRSLTFYPAWLTVSEGANATFTCSLSNWSEDLMLNWNRLSPSNQTEKQAAFSNGLSQPVQDARFQIIQLPNRHDFHMNILDTRRNDSGIYLCGAISLHPKAKIEESPGAELVVTERILETSTRYPSGGYPYDVPDYALEHHHHHH
notes: also called HA-tagged mPD-1; murine variant of PD-1
B3: SPAM L15A variant (peptide)
peptide: M(35S)PIFLDHILNKFWIAHYAGSGSSGHHHHHHSS
notes: in vitro translated alanine-scan variant
B4: SPAM W13A variant (peptide)
peptide: M(35S)PIFLDHILNKFAILHYAGSGSSGHHHHHHSS
notes: as for B3
B5: SPAM K11A variant (peptide)
peptide: M(35S)PIFLDHILNAFWILHYAGSGSSGHHHHHHSS
notes: as for B3
B6: SPAM P2A variant (peptide)
peptide: M(35S)AIFLDHILNKFWILHYAGSGSSGHHHHHHSS
notes: as for B3
B7: SPAM I14A variant (peptide)
peptide: [Met(35S)]PIFLDHILNKFWALHYAGSGSSGHHHHHHSS
notes: as for B3
B8: SPAM I3A variant (peptide)
peptide: M(35S)PAFLDHILNKFWILHYAGSGSSGHHHHHHSS
notes: as for B3
B9: SPAM D6A variant (peptide)
peptide: [Met(35S)]PIFLAHILNKFWILHYAGSGSSGHHHHHHSS
notes: as for B3
B10: SPAM L9A variant (peptide)
peptide: M(35S)PIFLDHIANKFWILHYAGSGSSGHHHHHHSS
notes: as for B3
B11: SPAM L5A variant (peptide)
peptide: M(35S)PIFADHILNKFWILHYAGSGSSGHHHHHHSS
notes: as for B3
B12: SPAM H7A variant (peptide)
peptide: [Met(35S)]PIFLDAILNKFWILHYAGSGSSGHHHHHHSS
notes: as for B3
B13: SPAM F12A variant (peptide)
peptide: [Met(35S)]PIFLDHILNKAWILHYAGSGSSGHHHHHHSS
notes: as for B3
B14: SPAM F4A variant (peptide)
peptide: [Met(35S)]PIALDHILNKFWILHYAGSGSSGHHHHHHSS
notes: as for B3
B15: SPAM I8A variant (peptide)
peptide: M(35S)PIFLDHALNKFWILHYAGSGSSGHHHHHHSS
notes: as for B3
B16: SPAM H16A variant (peptide)
peptide: [Met(35S)]PIFLDHILNKFWILAYAGSGSSGHHHHHHSS
notes: as for B3
B17: SPAM N10A variant (peptide)
peptide: M(35S)PIFLDHILAKFWILHYAGSGSSGHHHHHHSS
notes: as for B3

Target: T2, mPD-L1 expressed on CHO cells (CHO-mPD-L1) (mouse, UniProt Q9EP73 19-290)
T2 construct: whole, on cells; The construct in the CHO cells is not described
T2 sequence (Q9EP73 19-290): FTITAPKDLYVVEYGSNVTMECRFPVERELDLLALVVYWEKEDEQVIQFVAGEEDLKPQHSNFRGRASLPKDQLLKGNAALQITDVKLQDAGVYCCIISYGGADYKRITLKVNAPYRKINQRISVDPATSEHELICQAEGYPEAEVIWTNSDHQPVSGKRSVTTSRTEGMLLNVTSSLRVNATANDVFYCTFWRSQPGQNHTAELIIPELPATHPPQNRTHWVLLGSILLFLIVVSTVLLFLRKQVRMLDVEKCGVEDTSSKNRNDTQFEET
Experiment: flow cytometry competition on CHO-mPD-L1 cells: pre-incubation with the peptide, then Fluorescein-16373; % of median fluorescence intensity [cont.) D]
Excerpt: Bars represent means±SD, n=3. One-way ANOVA with Dunnett's multiple comparison's test p value <0.05 (*), <0.01 (**), <0.001 (***).
Cells were then washed three times with cold serum free DMEM. Cells were subsequently processed by flow cytometry with a BD FACSCalibur system using the FL1 channel. FlowJo v10.1 was used to gate to the major population and median FL1 fluorescence reported.

Row | binding result | Binder
1 | no binding (tested: 10 µM) | MPIFLDHILNKFWILHYASG[Pra]-NH2 [SPAM peptide (synthetic, MPIFLDHILNKFWILHYASG-Pra)]

Target: T1, hPD-L2* (recombinant glycosylated human …)
Experiment: radioactive pull-down of [35S]-labeled SPAM on immobilized target, normalized to hPD-L1 [cont.) D]

Row | binding result | Binder
2 | no binding | B1

Target: mPD-L1 (extracellular domain of mouse PD-L1, A18 to H239, expressed in E. coli, biotinylated) (mouse, biotin on the epsilon-amino group of the Avi tag lysine)
Sequence (chain, as listed by the source limits assumed): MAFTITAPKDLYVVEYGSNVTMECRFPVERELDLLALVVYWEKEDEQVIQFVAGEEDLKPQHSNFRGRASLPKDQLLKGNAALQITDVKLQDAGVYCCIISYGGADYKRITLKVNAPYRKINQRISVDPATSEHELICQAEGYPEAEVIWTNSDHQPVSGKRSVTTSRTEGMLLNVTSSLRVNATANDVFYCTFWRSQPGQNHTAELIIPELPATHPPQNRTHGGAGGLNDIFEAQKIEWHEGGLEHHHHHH
Experiment: radioactive pull-down of [35S]-labeled SPAM on immobilized target, normalized to hPD-L1

Row | binding result | Binder
3 | no binding | B1

Target: T3, biotinylated hPD-L1 (extracellular domain of human PD-L1, Ala18 to Thr239, expressed in E. coli, … (human, biotin on the epsilon-amino group of the Avi tag lysine (BirA)))
T3 construct: also called recombinant hPD-L1; non-glycosylated hPD-L1
Experiment: radioactive pull-down of [35S]-labeled variant on immobilized hPD-L1, normalized to SPAM
Method: (§1) The conservation level for each doped residue in the X₁₇ library was obtained from next-generation sequencing data. […] FIG. 3 discloses SEQ ID NO: 180. […] Each measurement was carried out in triplicate and error bars show the standard deviation of the mean. (Students t-test; p value <0.05 (*), <0.01 (**), <0.005 (***)<0.001 (****))
[³⁵S]-labeled peptides were translated as described above by including 2 μCi labeled methionine (Perkin Elmer) per 10 pmol of template in the translation reaction. Each peptide was tested with a […] (for X₉-library derived peptides) (SEQ ID NO: 11) or a […] (for X17-library derived peptides) (SEQ ID NO: 12) C-terminal sequence. […] The supernatant was removed and was counted. The beads were subsequently washed three times with 1 mL of blocking buffer and the washes were also counted. Finally, the beads were resuspended in 1 mL of blocking buffer and were counted separately. The ratio of the counts remaining on the beads to the total counts added to the binding reaction (the sum of the counts for supernatant, washes, and beads) was calculated to determine the percent bound.

Row | binding result | Binder
4 | no binding | [Met(35S)]PIFLDHILNKFWILHYGGSGSSGHHHHHHSS [SPAM A18 variant (glycine substituted for alanine at position 18)]

Target: T3, biotinylated hPD-L1 (extracellular …)
Experiment: SPR (Biacore T-100), biotinylated hPD-L1 on SA chip, mPD-1 0.15-29 uM as analyte, 25 C, one-site saturation fit
Method: SPR analysis was performed on a Biacore T-100 at the USC Nanobiophysics core. […] The response values were fit to a one-site saturation binding model in GraphPad Prism to obtain an equilibrium binding constant.

Row | Kd | Binder
5 | 3.2 µM | B2

Target: T3, biotinylated hPD-L1 (extracellular …)
Experiment: ELISA/IP: 100 nM biotinylated hPD-L1 on streptavidin magnetic beads, SPAM 0.1, 1, 10 uM; competitor 100 nM HA-tagged mPD-1 detected with anti-HA-HRP
Method: For ELISA/IP assays, 20 μL of MyOne™ Streptavidin T1 magnetic beads Dynabeads™ (Thermo Fisher Scientific) were loaded with 100 nM biotinylated hPD-L1 in assay buffer (20 mM HEPES-KOH pH 7.5, 150 mM NaCl, 0.2% (v/v) Tween-20, 1 mg/mL BSA and 50 μg/mL tRNA) at 4° C. […] The samples were then washed and incubated with a 1:5,000 dilution of HRP conjugated anti-HA antibody (Pierce HA Antibody, Rockford. Ill., USA) for 1 h at 4° C. The beads were washed again and developed with TMB Substrate Kit (Thermo Scientific) for 30 minutes and the reactions stopped by adding 100 μL of […] sulfuric acid.

Row | IC50 | Binder
6 | ~1100 nM | MPIFLDHILNKFWILHYASG[Pra]-NH2 [SPAM peptide (synthetic, MPIFLDHILNKFWILHYASG-Pra)]

Target: T3, biotinylated hPD-L1 (extracellular …)
Experiment: radioactive pull-down of [35S]-labeled alanine variant on immobilized hPD-L1, normalized to SPAM
Method: as §1
[³⁵S]-labeled peptides were translated as described above by including 2 μCi labeled methionine (Perkin Elmer) per 10 pmol of template in the translation reaction. Each peptide was tested with a […] (for X₉-library derived peptides) (SEQ ID NO: 11) or a […] (for X17-library derived peptides) (SEQ ID NO: 12) C-terminal sequence. Binding assays using [35S]-labeled peptide-RNA fusions were similarly performed on hPD-L1 immobilized beads using 75 pmol hPD-L1 immobilized on streptavidin or neutravidin agarose beads (Thermo Fisher scientific) in blocking buffer (20 mM HEPES-KOH pH 7.5, 150 mM NaCl, 0.2% (v/v) Tween-20, 1 mg/mL BSA, 50 μg/mL tRNA and 0.02 mM biotin) at 4° C. for 1 h. The supernatant was removed and was counted.

Row | binding result | Binder
7 | no binding | B3
8 | no binding | B4
9 | no binding | B5
10 | binds | B6
11 | no binding | B7
12 | binds | B8
13 | no binding | B9
14 | binds | B10
15 | binds | B11
16 | no binding | B12
17 | no binding | B13
18 | binds | B14
19 | binds | B15
20 | no binding | B16
21 | no binding | B17
